# According to patent US10500249B2, “Compositions and methods for preventing or treating diseases, conditions, or processes characterized by aberrant fibroblast proliferation and extracellular matrix deposition” (MOERAE MATRIX, INC., priority 2014, dated 2019):
# Key:
# Test in all cases: Kinase Profiling Assay
# Type in all cases: biochemical
# Conditions in all cases: 100 μM
# Flt1 (h) = Flt1 (h) (Homo sapiens, UniProt P17948)
# Procedure, shortened: (§1)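 Activity remaining relative to an uninhibited control was determined by scintillation counting of labeled substrate bound to a negatively charged filter. Radiolabeled phosphate came from ATP; the substrate carried positive charge. Duplicate measurements, within a 266-kinase human panel.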
# Abl (h) = Abl (h) (Homo sapiens, UniProt P00519)
# Procedure, shortened: as §1
# KDR (h) = KDR (h) (Homo sapiens, UniProt P35968)
# Procedure, shortened: as §1
# PAK2 (h) = biological target: T1, PAK2 (h) (Homo sapiens, UniProt Q13177)
# T1 construct: purchased Millipore
# Procedure, shortened: as §1
# MINK (h) = biological target: T2, MINK (h) (Homo sapiens, UniProt Q8N4C8)
# T2 construct: purchased Millipore
# Procedure, shortened: as §1
# Ron (h) = Ron (h) (Homo sapiens, UniProt Q04912)
# Procedure, shortened: as §1
# SAPK4 (h) = biological target: T3, SAPK4 (h) (Homo sapiens, UniProt O15264)
# T3 sequence (O15264 1-365): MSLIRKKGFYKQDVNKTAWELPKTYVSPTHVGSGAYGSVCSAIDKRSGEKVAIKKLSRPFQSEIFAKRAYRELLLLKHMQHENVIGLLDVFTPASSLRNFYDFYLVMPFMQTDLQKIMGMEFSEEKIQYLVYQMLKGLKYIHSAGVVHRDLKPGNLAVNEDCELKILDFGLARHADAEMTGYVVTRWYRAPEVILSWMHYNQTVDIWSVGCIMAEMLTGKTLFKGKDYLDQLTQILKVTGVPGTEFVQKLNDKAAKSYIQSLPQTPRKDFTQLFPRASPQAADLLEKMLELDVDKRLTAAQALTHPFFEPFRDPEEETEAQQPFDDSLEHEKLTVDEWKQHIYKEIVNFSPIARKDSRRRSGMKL
# Procedure, shortened: as §1
# IRAK1 (h) = biological target: T4, IRAK1 (h) (Homo sapiens, UniProt P51617)
# T4 construct: purchased Millipore
# Procedure, shortened: as §1
# Axl (h) = Axl (h) (Homo sapiens, UniProt P30530)
# Procedure, shortened: as §1
# Flt3(D835Y) (h) = Flt3(D835Y) (h) (Homo sapiens, UniProt P36888, D835Y)
# Procedure, shortened: as §1
# NLK (h) = biological target: T5, NLK (h) (Homo sapiens, UniProt Q9UBE8)
# T5 construct: purchased Millipore
# T5 sequence (Q9UBE8 1-527): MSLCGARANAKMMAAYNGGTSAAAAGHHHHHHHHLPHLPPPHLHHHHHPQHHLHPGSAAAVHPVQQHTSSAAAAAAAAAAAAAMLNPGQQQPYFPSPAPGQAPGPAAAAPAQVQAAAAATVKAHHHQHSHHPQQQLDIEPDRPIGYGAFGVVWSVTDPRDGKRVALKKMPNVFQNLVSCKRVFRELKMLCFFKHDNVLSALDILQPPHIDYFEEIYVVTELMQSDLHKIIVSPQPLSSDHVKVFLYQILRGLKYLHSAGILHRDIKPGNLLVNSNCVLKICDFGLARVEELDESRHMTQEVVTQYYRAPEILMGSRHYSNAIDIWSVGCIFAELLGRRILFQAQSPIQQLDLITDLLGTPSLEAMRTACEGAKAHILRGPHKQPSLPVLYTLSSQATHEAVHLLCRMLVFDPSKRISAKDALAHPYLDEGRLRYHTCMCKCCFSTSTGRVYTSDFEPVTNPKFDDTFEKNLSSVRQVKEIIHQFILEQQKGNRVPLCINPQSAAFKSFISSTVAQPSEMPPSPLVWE
# Procedure, shortened: as §1
# TSSK2 (h) = biological target: T6, TSSK2 (h) (Homo sapiens, UniProt Q96PF2)
# T6 sequence (Q96PF2 1-358): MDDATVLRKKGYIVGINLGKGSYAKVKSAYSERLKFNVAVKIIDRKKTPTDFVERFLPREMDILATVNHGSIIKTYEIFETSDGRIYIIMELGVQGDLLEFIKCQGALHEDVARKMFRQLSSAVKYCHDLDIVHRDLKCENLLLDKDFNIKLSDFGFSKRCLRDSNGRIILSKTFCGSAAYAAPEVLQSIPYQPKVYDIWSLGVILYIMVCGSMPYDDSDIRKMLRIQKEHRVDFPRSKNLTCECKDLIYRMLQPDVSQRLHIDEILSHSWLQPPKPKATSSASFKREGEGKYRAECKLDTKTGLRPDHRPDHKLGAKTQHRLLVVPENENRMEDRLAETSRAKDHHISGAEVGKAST
# Procedure, shortened: as §1
# Met(Y1248D) (h) = Met(Y1248D) (h) (Homo sapiens, UniProt P08581, Y1230D)
# Procedure, shortened: as §1
# Sequence of KDR (h) (P35968 20-1356): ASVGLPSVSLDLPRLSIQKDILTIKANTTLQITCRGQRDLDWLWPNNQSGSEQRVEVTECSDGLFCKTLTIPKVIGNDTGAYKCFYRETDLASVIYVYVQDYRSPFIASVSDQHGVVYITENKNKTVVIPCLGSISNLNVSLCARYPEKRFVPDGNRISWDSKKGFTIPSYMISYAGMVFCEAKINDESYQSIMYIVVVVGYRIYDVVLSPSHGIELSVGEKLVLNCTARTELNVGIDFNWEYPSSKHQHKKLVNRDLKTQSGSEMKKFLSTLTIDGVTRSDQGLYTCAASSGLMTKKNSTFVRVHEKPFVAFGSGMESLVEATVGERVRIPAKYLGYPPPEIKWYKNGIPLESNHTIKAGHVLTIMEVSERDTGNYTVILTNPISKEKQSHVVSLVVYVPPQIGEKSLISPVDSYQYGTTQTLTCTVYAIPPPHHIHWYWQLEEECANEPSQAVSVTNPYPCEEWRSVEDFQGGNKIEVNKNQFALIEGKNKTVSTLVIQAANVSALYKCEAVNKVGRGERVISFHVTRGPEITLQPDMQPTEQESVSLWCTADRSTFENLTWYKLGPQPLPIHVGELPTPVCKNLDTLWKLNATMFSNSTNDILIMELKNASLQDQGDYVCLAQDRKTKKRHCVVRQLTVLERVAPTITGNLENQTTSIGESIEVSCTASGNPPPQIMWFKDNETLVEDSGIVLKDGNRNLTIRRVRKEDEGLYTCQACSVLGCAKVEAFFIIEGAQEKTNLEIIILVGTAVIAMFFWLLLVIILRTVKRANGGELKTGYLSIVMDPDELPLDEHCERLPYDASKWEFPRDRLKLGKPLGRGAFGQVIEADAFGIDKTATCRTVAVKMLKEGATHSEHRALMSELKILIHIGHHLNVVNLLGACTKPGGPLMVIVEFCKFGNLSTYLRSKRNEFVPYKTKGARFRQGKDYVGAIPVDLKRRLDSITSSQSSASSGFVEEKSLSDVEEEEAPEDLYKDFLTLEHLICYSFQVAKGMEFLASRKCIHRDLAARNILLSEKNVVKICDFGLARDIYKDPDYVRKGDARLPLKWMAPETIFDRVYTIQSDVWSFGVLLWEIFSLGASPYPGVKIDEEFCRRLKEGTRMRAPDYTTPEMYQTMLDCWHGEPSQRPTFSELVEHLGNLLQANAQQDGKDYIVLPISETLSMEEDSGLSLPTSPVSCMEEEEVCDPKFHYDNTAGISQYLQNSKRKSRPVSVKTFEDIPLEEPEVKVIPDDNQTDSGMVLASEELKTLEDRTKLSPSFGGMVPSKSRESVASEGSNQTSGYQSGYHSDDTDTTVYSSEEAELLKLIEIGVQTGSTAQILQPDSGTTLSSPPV
# Sequence of Flt1 (h) (P17948 27-1338): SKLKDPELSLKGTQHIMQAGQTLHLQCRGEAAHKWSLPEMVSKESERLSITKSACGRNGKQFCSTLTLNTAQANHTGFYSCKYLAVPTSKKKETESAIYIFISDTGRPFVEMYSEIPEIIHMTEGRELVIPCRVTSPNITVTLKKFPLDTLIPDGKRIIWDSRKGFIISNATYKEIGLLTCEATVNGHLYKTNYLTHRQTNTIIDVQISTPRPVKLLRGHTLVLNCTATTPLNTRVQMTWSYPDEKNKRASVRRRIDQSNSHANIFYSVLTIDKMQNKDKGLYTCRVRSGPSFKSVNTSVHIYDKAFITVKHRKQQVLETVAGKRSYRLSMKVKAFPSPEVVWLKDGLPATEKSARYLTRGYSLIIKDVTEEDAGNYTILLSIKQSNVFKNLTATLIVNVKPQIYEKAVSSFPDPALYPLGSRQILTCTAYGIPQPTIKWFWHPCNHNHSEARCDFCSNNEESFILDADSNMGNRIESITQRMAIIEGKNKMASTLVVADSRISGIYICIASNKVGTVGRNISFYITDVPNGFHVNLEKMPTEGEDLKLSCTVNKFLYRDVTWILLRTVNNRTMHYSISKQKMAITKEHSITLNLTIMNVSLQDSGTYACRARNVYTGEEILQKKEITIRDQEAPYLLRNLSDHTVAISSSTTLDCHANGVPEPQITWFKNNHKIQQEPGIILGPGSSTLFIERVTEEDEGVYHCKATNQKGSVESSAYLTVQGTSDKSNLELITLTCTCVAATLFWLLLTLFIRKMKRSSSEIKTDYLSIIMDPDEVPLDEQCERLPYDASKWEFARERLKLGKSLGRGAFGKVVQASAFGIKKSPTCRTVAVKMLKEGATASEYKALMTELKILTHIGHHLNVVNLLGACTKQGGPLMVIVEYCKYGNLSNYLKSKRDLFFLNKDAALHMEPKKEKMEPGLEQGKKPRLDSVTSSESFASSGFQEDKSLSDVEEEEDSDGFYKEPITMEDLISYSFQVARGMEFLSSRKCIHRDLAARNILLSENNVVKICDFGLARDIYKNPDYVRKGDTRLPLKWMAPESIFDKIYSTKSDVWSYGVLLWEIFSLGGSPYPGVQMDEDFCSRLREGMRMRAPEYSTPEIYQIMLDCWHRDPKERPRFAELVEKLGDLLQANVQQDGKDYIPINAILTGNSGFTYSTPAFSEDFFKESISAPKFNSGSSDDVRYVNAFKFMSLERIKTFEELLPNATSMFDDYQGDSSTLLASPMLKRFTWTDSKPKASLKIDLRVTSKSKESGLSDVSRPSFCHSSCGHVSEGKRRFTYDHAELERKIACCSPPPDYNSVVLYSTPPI
# T1 sequence (Q13177 whole entry): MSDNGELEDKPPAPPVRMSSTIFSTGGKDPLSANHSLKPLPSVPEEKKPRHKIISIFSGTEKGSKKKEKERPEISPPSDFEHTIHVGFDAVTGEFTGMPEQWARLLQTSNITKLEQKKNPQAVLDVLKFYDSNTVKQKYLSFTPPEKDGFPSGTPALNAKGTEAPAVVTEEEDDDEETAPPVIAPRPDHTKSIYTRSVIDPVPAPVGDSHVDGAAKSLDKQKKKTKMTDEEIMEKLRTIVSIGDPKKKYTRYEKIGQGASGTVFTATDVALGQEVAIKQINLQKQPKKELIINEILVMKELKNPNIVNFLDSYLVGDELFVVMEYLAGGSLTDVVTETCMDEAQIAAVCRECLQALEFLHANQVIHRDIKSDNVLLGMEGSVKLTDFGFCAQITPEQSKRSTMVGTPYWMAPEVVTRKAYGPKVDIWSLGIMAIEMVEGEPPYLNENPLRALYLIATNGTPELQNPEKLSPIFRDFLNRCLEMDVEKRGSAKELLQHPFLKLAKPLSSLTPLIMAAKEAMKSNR
# T2 sequence (Q8N4C8 whole entry): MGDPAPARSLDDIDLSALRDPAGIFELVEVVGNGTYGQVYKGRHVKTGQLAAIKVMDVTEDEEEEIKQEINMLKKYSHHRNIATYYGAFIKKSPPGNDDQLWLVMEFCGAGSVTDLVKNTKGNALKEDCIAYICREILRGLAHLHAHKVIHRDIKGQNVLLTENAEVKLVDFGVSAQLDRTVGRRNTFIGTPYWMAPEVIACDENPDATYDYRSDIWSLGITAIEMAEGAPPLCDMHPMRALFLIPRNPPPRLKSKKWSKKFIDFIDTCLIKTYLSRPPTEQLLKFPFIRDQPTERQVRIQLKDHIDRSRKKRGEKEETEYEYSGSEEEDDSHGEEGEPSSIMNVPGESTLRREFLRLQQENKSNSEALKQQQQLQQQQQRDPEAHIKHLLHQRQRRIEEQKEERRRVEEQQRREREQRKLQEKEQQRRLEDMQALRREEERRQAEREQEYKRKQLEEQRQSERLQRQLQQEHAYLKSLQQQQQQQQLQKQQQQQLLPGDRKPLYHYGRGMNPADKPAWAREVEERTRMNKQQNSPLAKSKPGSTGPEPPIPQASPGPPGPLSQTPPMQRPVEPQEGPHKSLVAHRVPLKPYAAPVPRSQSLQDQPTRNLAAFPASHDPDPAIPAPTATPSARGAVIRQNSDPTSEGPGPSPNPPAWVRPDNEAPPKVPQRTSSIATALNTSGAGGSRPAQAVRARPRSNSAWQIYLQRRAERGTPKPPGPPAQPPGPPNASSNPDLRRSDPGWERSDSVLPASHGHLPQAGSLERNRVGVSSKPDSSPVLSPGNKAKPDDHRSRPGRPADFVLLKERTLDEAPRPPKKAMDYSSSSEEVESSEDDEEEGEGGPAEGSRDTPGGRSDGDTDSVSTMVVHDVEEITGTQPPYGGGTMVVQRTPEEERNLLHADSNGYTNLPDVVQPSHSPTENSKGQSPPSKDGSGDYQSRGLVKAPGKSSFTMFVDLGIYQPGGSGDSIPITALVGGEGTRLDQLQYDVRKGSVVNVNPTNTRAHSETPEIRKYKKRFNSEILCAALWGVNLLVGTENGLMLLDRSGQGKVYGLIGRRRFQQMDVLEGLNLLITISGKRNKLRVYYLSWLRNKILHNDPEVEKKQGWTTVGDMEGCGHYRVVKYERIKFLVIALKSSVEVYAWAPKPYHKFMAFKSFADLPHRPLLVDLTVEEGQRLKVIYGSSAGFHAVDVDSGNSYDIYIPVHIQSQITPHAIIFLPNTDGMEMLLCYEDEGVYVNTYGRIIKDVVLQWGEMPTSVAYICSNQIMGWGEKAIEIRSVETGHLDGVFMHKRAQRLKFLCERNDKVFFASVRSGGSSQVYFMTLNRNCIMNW
Sequence,% activity (Flt1 (h)) [%],% activity (Abl (h)) [%],% activity (KDR (h)) [%],% activity (PAK2 (h)) [%],% activity (MINK (h)) [%],% activity (Ron (h)) [%],% activity (SAPK4 (h)) [%],% activity (IRAK1 (h)) [%],% activity (Axl (h)) [%],% activity (Flt3(D835Y) (h)) [%],% activity (NLK (h)) [%],% activity (TSSK2 (h)) [%],% activity (Met(Y1248D) (h)) [%]
FAKLAARLYRKALARQLGVAA [MMI-0300],69,69,101,65,48,93,96,95,52,80,87,98,–
HRRIKAWLKKIKALARQLGVAA (Mammalian) [MMI-0500],27,16,15,44,5,46,48,5,12,65,19,92,218
KAFAKLAARLYRKALARQLGVAA [MMI-0400],48,84,94,59,52,79,91,93,41,71,90,94,31
YARAAARQARAKALNRQLGVA (Mammalian) [MMI-0200],96,–,110,69,–,120,–,101,99,–,–,91,118
